From patent publication US20230183336A1 (MODMAB THERAPEUTICS, published 2023)

Biological target: T1, recombinant human LRP6-Fc chimera (human, UniProt O75581 20-1370)
T1 construct: extracellular domain; also called ECD of human LRP6; not shown: Fc part of the chimera
T1 sequence (looked up): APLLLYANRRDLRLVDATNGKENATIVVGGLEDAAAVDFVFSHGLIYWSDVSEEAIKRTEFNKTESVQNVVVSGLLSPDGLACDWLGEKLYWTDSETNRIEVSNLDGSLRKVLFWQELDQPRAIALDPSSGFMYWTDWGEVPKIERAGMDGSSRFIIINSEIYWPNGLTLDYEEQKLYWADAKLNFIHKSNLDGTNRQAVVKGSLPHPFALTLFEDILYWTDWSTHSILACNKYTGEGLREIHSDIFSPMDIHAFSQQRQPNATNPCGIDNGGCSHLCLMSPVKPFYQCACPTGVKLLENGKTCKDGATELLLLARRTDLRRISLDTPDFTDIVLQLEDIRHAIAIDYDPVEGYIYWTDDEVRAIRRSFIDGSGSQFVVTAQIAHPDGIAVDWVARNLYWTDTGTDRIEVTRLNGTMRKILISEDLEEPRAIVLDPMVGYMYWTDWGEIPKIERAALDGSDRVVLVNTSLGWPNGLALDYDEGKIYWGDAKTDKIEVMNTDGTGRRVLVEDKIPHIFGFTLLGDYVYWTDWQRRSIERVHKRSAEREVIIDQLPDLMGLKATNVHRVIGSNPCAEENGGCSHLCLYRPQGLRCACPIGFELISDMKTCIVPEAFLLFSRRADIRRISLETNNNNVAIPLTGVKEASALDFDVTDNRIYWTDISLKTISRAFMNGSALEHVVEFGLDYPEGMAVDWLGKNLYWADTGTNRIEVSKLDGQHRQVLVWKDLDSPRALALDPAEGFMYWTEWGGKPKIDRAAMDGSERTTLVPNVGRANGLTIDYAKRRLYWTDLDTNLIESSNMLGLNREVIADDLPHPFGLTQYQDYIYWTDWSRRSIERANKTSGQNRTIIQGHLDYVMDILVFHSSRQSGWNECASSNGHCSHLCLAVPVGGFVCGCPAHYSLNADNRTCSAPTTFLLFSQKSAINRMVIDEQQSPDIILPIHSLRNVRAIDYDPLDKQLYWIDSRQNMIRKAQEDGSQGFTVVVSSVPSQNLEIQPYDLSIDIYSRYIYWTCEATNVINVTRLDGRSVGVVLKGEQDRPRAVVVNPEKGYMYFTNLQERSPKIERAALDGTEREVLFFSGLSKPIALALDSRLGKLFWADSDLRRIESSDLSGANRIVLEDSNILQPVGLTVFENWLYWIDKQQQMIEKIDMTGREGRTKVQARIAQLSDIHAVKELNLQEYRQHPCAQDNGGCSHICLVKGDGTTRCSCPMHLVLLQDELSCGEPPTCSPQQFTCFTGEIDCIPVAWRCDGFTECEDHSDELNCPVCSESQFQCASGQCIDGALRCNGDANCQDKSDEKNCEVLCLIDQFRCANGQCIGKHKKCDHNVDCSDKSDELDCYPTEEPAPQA
Test: multipoint competitive ELISA, IgG1; varied competitor printed as recombinant human LRP6-Fc chimera, while paragraph 283 says 'the recombinant antigen'
Excerpt: The full length IgG1s and the antibody fragments (Fabs) were purified and a single-point ELISA was done to determine the specificity of the antibodies. […] A multipoint competitive ELISA was used to determine the relative affinities of the antibodies to the recombinant antigen.
Table 3 reports the IC50 of LRP5 antibodies as determined by competitive ELISA. The log of the recombinant human LRP6-Fc chimera concentration (x-axis) was plotted against the OD450 reading of the antibody (y-axis). The IC50 was determined by non-linear regression analysis.

B1: LRP5-H5 (antibody, V domains shown)
VH: EVQLVESGGGLVQPGGSLRLSCAASGFNLSYSSIHWVRQAPGKGLEWVASISSSYGSTSYADSVKGRFTISADTSKNTAYLQMNSLRAEDTAVYYCARGYWAIDYWGQGTLVTVSS
VL: DIQMTQSPSSLSASVGDRVTITCRASQSVSSAVAWYQQKPGKAPKLLIYSASSLYSGVPSRFSGSRSGTDFTLTISSLQPEDFATYYCQQPVGHYGYPITFGQGTKVEIKR
notes: Fab-phage in the screen
IC50: 4.44 nM
